# B1: HET-s(218-289), prion-forming domain of HET-s (domain or fragment, Podospora anserina, UniProt Q03689 218-289, looked up)
# chain: KIDAIVGRNSAKDIRTEERARVQLGNVVTAAALHGGIRISDQTTNSVETVVGKGESRVLIGNEYGGKGFWDN
# notes: also called HET-s PFD; HET-s(218-289) amyloid seeds
# B2: HET-S (full-length, residues 1-289) (natural protein, Podospora anserina, UniProt B2ACC7 1-289, looked up)
# chain: MSEPFEIVAGALGVAGLFNNCVACFEYVQLGRHFGRDYERCQLRLDIAKVRLSRWGEAVQINDDPRFHSSAPIDKSVQLAKSIVEEILLLFESAQKTSKRYELVADQQDLVVFEDKDMKPIGRALHRRLKDLVSRRQKQTSLAKKTAWALYDGKSLEKIVDQVAGFVDELEKAFPIEAVCHKLAENEIEEVEDEASLTILKDAAGGIDAAMSDAAAQKIDAIVGRNSAKDIRTEKRARVQLGNVVTAAALHGEIRISDQTTNSVETVVGKGESKVLIGNEYGGKGFWDN
# notes: also called HET-S protein; recombinant HET-S
# What was measured:
# [1] = target: B2; test: solid-state NMR (PAIN 13C-15N pol); settings: both partners purified
# [2] = target: the molecule itself; test: solid-state NMR (PAIN 13C-15N pol)
# [3] = target: the molecule itself; test: solid-state NMR (NCA 2D and 3D co)
# HET-s (full-length) = target: T1, HET-s (full-length) (Podospora anserina, UniProt Q03689 1-289); test: solid-state NMR (NCA 2D and 3D co); settings: both partners purified
# T1 construct: also called unlabeled monomeric full-length HET-s; HET-s prion
# T1 sequence (looked up): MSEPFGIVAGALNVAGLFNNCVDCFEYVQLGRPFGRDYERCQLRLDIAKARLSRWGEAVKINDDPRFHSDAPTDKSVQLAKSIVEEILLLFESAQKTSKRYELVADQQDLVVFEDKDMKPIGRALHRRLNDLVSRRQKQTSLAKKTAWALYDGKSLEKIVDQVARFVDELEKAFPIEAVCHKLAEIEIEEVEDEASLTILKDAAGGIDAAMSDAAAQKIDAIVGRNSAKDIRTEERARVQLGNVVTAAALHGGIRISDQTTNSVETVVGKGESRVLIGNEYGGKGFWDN
Binder,binding result [1],binding result [2],binding result [3],binding result (HET-s (full-length))
B1,binds,binds,,
B2,,,binds,binds
